Measured values from IntAct's records for PubMed 29039417.

B1: BBSome complex member BBS5 (Homo sapiens), Q8N3I7 (parent)
chain: MSVLDALWEDRDVRFDLSAQQMKTRPGEVLIDCLDSIEDTKGNNGDRGRLLVTNLRILWHSLALSRVNVSVGYNCILNITTRTANSKLRGQTEALYILTKCNSTRFEFIFTNLVPGSPRLFTSVMAVHRAYETSKMYRDFKLRSALIQNKQLRLLPQEHVYDKINGVWNLSSDQGNLGTFFITNVRIVWHANMNDSFNVSIPYLQIRSIKIRDSKFGLALVIESSQQSGGYVLGFKIDPVEKLQESVKEINSLHKVYSASPIFGVDYEMEEKPQPLEALTVEQIQDDVEIDSDGHTDAFVAYFADGNKQQDREPVFSEELGLAIEKLKDGFTLQGLWEVMS
partner: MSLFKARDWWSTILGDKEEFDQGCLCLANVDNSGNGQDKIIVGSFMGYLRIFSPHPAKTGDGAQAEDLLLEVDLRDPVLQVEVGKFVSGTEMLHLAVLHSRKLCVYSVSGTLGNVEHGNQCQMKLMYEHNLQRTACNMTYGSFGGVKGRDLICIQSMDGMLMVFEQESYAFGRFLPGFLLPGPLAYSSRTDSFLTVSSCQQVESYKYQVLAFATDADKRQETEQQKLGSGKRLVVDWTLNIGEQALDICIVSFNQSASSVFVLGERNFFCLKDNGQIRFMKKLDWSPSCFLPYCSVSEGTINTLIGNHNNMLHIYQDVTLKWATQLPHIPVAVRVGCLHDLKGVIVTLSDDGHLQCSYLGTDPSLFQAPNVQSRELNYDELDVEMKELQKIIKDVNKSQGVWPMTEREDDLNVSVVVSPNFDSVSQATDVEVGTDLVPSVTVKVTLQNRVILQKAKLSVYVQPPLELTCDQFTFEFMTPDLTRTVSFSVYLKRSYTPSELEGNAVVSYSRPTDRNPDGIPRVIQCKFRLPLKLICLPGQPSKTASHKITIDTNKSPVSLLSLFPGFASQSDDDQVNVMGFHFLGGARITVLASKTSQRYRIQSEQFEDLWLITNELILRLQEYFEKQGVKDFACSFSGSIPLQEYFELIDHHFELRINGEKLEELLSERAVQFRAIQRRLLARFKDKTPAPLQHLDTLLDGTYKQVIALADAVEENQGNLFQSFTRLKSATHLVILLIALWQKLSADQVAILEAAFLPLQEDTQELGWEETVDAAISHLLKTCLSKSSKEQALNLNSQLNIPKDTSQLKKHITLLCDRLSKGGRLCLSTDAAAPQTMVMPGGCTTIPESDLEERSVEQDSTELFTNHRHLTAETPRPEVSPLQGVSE

Variants of: B1
Details: with pthb1_human BBS9, Q3SYG4

Variant | effect of a mutation on the interaction
S200E | with no effect
I182A | with no effect
I222E | disrupting interaction strength
I222K | with no effect
I222A | with no effect
K210A | with no effect
E223K | with no effect
V188K | with no effect
V188E | with no effect
S224E | with no effect
S224K | with no effect
I211E | with no effect
Q205A | with no effect
Q205K | with no effect
Q205E | with no effect
Y203K | with no effect
D195A | with no effect
D195E | with no effect
V199E | with no effect
V199K | with no effect
I201K | with no effect

Variant | effect of a mutation on the interaction
V232E | with no effect
F216E | with no effect
R186K | disrupting interaction strength
R186A | with no effect
Q227A | disrupting interaction strength
Q227K | with no effect
T179A | with no effect
W189A | with no effect
R207A | with no effect
R207E | with no effect
G178R | disrupting interaction strength
L233K | with no effect
L233A | disrupting interaction strength
F197E | with no effect
S228K | with no effect
S228E | with no effect
S228A | with no effect
L204E | with no effect
L204K | with no effect
T183K | with no effect
S214A | with no effect

Variant | effect of a mutation on the interaction
N192A | with no effect
N176A | with no effect
N176K | with no effect
P202K | with no effect
I209E | with no effect
I209A | with no effect
D213K | with no effect
S196K | with no effect
S196E | with no effect
A191E | with no effect
N198A | with no effect
H190A | with no effect
G175A | with no effect
G175E | with no effect
G175K | with no effect
Q226A | with no effect
S208K | with no effect
S208E | with no effect
L177E | with no effect
V185E | with no effect
N184E | disrupting interaction strength

Variant | effect of a mutation on the interaction
N184K | with no effect
G217E | with no effect
G217A | with no effect
I187E | with no effect
I187K | with no effect
L218K | with no effect
I206A | with no effect
I206K | with no effect
I206E | with no effect
S225K | with no effect
N194E | with no effect
N194K | with no effect
K215A | with no effect
Q174K | with no effect
Q174E | with no effect
L220A | with no effect
L220E | with no effect
A219K | with no effect

Further lines, results first:

effect of a mutation on the interaction | Variant
with no effect | S200A
with no effect | S200K
with no effect | I182E
disrupting interaction strength | I182K
with no effect | K210E
with no effect | E223A
with no effect | V188A
with no effect | S224A
with no effect | I211A
with no effect | I211K
with no effect | Y203E
with no effect | Y203A
with no effect | D195K
with no effect | V199A
with no effect | I201E
with no effect | I201A
with no effect | V232A
with no effect | V232K
with no effect | R212A
with no effect | R212E
with no effect | R212K
with no effect | F216A
with no effect | F216K
disrupting interaction strength | R186E
with no effect | G230E

effect of a mutation on the interaction | Variant
with no effect | G230K
with no effect | G230A
with no effect | Q227E
with no effect | T179E
with no effect | T179K
disrupting interaction strength | Y231A
with no effect | Y231K
with no effect | Y231E
with no effect | W189E
with no effect | W189K
with no effect | M193K
with no effect | M193E
with no effect | M193A
with no effect | R207K
disrupting interaction strength | G178E
with no effect | G178A
with no effect | G178K
with no effect | L233E
with no effect | V221E
with no effect | V221K
with no effect | V221A
with no effect | F197A
with no effect | F197K
with no effect | L204A
with no effect | T183E

effect of a mutation on the interaction | Variant
with no effect | T183A
with no effect | S214K
with no effect | S214E
with no effect | N192E
with no effect | N192K
with no effect | N176E
with no effect | P202A
with no effect | P202E
with no effect | I209K
with no effect | G229E
with no effect | G229A
disrupting interaction strength | G229S
with no effect | G229K
with no effect | D213A
with no effect | D213E
with no effect | S196A
with no effect | F235A
with no effect | G234K
disrupting interaction strength | G234A
with no effect | G234E
with no effect | A191K
with no effect | N198E
with no effect | N198K
with no effect | H190K
with no effect | H190E

effect of a mutation on the interaction | Variant
with no effect | Q226K
with no effect | Q226E
with no effect | S208A
with no effect | L177A
with no effect | L177K
with no effect | V185A
with no effect | V185K
with no effect | N184A
with no effect | G217K
disrupting interaction strength | G217D
with no effect | I187A
with no effect | L218A
with no effect | L218E
with no effect | S225A
with no effect | S225E
with no effect | N194A
with no effect | K215E
with no effect | F180A
disrupting interaction strength | F180K
with no effect | F180E
with no effect | L220K
with no effect | A219E
with no effect | F181K
with no effect | F181A
with no effect | F181E
